From article PMC1331985 (Nucleic Acids Research, 2006)
Residue numbers refer to the chain shown, from its start. Names and notes keep the numbering of the source.

B1: Est3p-K71A (natural protein, S. cerevisiae, UniProt Q03096 1-181, looked up)
chain: MPKVILESHSKPTDSVFLQPWIKALIEDNSEHDQYHPSGHVIPSLTKQDLALPHMSPTILTNPCHFAKITAFYNVCDYKVYASIRDSSHQILVEFSQECVSNFERTHNCRITSETTNCLMIIGDADLVYVTNSRAMSHFKICLSNISSKEIVPVLNVNQATIFDIDQVGSLSTFPFVYKYL
B2: Est3p-E104A (natural protein, S. cerevisiae, UniProt Q03096 1-181, looked up)
chain: B1 chain with A71K, E104A
B3: Est3p-K3A (natural protein, S. cerevisiae, UniProt Q03096 1-181, looked up)
chain: B1 chain with K3A, A71K
B4: Est3p-T115A (natural protein, S. cerevisiae, UniProt Q03096 1-181, looked up)
chain: B1 chain with A71K, T115A
B5: Est3p-F72A (natural protein, S. cerevisiae, UniProt Q03096 1-181, looked up)
chain: B1 chain with A71K, F72A
B6: Est3p-S87A (natural protein, S. cerevisiae, UniProt Q03096 1-181, looked up)
chain: B1 chain with A71K, S87A

Biological target: the molecule itself
Experiment: SEC

| Protein | binding result |
| --- | --- |
| B1 | binds |
| B2 | binds |
| B3 | binds |
| B4 | binds |
| B5 | binds |
| B6 | binds |
